Measured values taken from patent US20100322893A1 (MEDLMMUNE, published 2010).

What was measured:
B7-1 on Raji cells = B7-1 on Raji cells (UniProt P33681); experiment: cell-based or functional assay; parameters: unit not given beside the values
B7-2 on Raji cells = B7-2 on Raji cells (UniProt P42081); experiment: cell-based or functional assay; parameters: unit not given beside the values
[1] = target: T1, B7-1 coated on the plate of the stability RIA (human, UniProt P33681 35-242); experiment: stability RIA: 35S-labelled in vitro translated CTLA-4 on a plate coated with B7-1, non-reducing conditions
T1 construct: also called human B7-1 (RnD Systems, 140-B1)
T1 sequence (looked up): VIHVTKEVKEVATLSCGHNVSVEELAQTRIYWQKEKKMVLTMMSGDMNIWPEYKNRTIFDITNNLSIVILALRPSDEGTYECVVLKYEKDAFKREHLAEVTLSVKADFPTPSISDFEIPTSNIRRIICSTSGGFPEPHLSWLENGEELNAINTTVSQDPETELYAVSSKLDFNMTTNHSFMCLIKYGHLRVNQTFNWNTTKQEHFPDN
Procedure: (§1) CTLA-4 variants were screened for stability using the primary stability RIA (radio immunoassay) as described in Jermutus et al., (2001). In brief for each variant a linear DNA template was amplified, transcribed, the mRNA purified on G25 Sephadex® columns and quantified. For each variant in vitro translations in the presence of ³⁵S-labelled methionine were set up in duplicate at 30° C. for 30 min, one in non-reducing conditions and one in 10 mM DTT (dithiothreitol). The translations were stopped with PBS with 0.050 Tween 20, with DTT at the same concentration as the translations. The translation mixture was incubated on a plate coated with B7-1 for 1 hour at room temperature. Plates were washed three times in PBS with 0.05% Tween 20® and three times in PBS. The remaining radioactivity was eluted with 0.1 M triethylamine and quantified by liquid scintillation counting. A measure of the variants' stability was calculated as the percentage residual binding i.e. binding signal in presence of DTT, divided by binding signal in absence of DTT, multiplied by 100.

[2] = target: T1, B7-1 coated on the plate of the …; experiment: stability RIA: 35S-labelled in vitro translated CTLA-4 on a plate coated with B7-1, 10 mM DTT against no DTT
Procedure: as §1

B7-2 on Raji cells, sequence (P42081 24-329 limits assumed): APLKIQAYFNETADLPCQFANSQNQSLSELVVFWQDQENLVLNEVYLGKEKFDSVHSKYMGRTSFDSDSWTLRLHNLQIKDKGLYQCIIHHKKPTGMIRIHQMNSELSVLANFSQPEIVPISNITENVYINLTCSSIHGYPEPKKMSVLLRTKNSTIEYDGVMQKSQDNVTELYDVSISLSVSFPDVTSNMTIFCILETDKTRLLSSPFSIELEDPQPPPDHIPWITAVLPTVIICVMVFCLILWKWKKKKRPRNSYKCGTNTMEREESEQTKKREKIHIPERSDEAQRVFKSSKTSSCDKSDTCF

CTLA-4 human wild-type (SEQ ID NO: 8), CTLA-4-Fc form (from UniProt P16410 37-161) (Fc fusion; in M (unit assumed))
EC50, inhibition of IL-2 production in the Jurkat and Raji dual cell assay (B7-1 and B7-2 both free) (B7-1 on Raji cells): 1.27e-08
EC50, inhibition of IL-2 production in the Jurkat and Raji dual cell assay (B7-1 and B7-2 both free) (B7-2 on Raji cells): 1.27e-08

B1: CTLA-4 variant Var 3 (SEQ ID 7), monomeric form with serine at position 121, translated in vitro (receptor)
chain: AMHVAQPAVVLASSRGIASFVCEYAPPGKATEVRVTVLRQADSQVTEVWAATYMMGNESTFPDDSICTGTFSGNQVNLTIRGLRAMDTGLYICEVELMYPPPYYLGIGNGTQIYVIDPEPSPDSD
modifications: 35S-labelled methionine
Signal DTT- (RIA signal after non-reducing conditions, signal over background) [1]: 13.2 signal over background
% Residual Binding (signal in 10 mM DTT divided by signal without DTT, times 100) [2]: 75%

B2: CTLA-4 variant Var 2 (SEQ ID 6), monomeric form with serine at position 121, translated in vitro (receptor)
chain: AMHVAQPAVVLASSRGIASFVCEYAPPGKATEVRVTVLRQADGQVSEVCAATYMMGNESTFLDDSICTGTFSGNQVNLTIRGLRAMDTGLYICEVELMYPPPYYLGIGNGTQIYVIDPEPSPDSD
modifications: 35S-labelled methionine
Signal DTT- (RIA signal after non-reducing conditions, signal over background) [1]: 29.8 signal over background
% Residual Binding (signal in 10 mM DTT divided by signal without DTT, times 100) [2]: 11%

B3: CTLA-4 variant Var 1 (SEQ ID 5), monomeric form with serine at position 121, translated in vitro (receptor)
chain: AMHVAQPAVVLASSRGTASFVCEYAPPGKATEVRVTVLRQADSQVTEVYAATYMMGNESTSLDDSICTGTFSGNQVNLTIQGLRAMDTGLYICEVELMYPPPYYLGIGNGTQIYVIDPEPSPDSD
modifications: 35S-labelled methionine
Signal DTT- (RIA signal after non-reducing conditions, signal over background) [1]: 2.6 signal over background
% Residual Binding (signal in 10 mM DTT divided by signal without DTT, times 100) [2]: 55%
